Test results taken from article PMC8163826.
Read-outs that look alike come from different tables or passages of the source.

Legend:
[1] = molecular target: RSV CASPNC (Rous sarcoma virus); assay: cryo-EM structure; cryo-electron tomography and subtomogram averaging of CASPNC CLPs (regular tubes and polyhedrons) assembled in the presence of 100 µM IP6
[2] = molecular target: RSV CASPNC (Rous sarcoma virus); assay: as above; remark: listed apart in the source
[3] = molecular target: RSV CA protein (Rous sarcoma virus); assay: cryo-EM structure; single-particle cryo-EM of T = 1 and T = 3 icosahedral CLPs; 500 µM CA assembled in 1 M NaPO4 at pH 8, diluted 1:4
[4] = molecular target: RSV CA protein (Rous sarcoma virus); assay: as above; remark: listed apart in the source

Substance | stoichiometry N [1] | stoichiometry N [2] | stoichiometry N [3] | stoichiometry N [4]
RSV CASPNC (domain or fragment) | 5 | 6 | – | –
RSV CA protein (natural protein) | – | – | 5 | 6
